Experimental findings from patent US20040208867A1, “Protein having active sulfate transporter activity and method for detecting canceration of tissue” (NATIONAL INSTITUTE OF ADVANCED INDUSTRIAL SCIENCE AND …, priority 2002, published 2004) are described below.

Data set [1] can be described thus: transport activity of the P100 fraction for labeled nucleotide sugars instead of PAPS. In kind it is biochemical, yeast strain W303a. The settings on record: labeled nucleotide sugars instead of 35S-labeled PAPS (FIG. 2).
Substrate in data set [2]: Nc1ncnc2c1ncn2[C@@H]1O[C@H](COP(=O)(O)OS(=O)(=O)O)[C@@H](OP(=O)(O)O)[C@H]1O
Put plainly: cells, lysate or membranes. The settings on record: other: transport of PAPS (35S-labeled), P100 fraction, pH 7.5, PAPS concentration varied, FIG. 3, FIG. 4, 37.0 °C.

B1: human STP3 (GenBank accession No. XM_059770), protein having active sulfate (PAPS) transport activity, SEQ ID NO:2 (Homo sapiens) (protein)
chain: MDARWWAVVVLAAFPSLGAGGETPEAPPESWTQLWFFRFVVNAAGYASFMVPGYLLVQYFRRKNYLETGRGLCFPLVKACVFGNEPKASDEVPLAPRTEAAETTPMWQALKLLFCATGLQVSYLTWGVLQERVMTRSYGATATSPGERFTDSQFLVLMNRVLALIVAGLSCVLCKQPRHGAPMYRYSFASLSNVLSSWCQYEALKFVSFPTQVLAKASKVIPVMLMGKLVSRRSYEHWEYLTATLISIGVSMFLLSSGPEPRSSPATTLSGLILLAGYIAFDSFTSNWQDALFAYKMSSVQMMFGVNFFSCLFTVGSLLEQGALLEGTRFMGRHSEFAAHALLLSICSACGQLFIFYTIGQFGAAVFTIIMTLRQAFAILLSCLLYGHTVTVVGGLGVAVVFAALLLRVYARGRLKQRGKKAVPVESPVQKV
B1: in data set [1], the “activity to specifically transport substances other than PAPS” value is listed as “substantially has no activity”. In data set [2], the Km amounted to 0.7 µM.

Broadly, the Km is the concentration of substrate that gives half-maximal velocity.
